B1: VAMP4 (parent)
chain: IMALVAAILLLVIIILIVMKYRT

Variants of: B1
Test: protein stability index of a GFP-peptide fusion (GPS, HEK-293T) (PSI 1-6); higher = more stable
Details: c terminus: native
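Further: lentivirally expressed fusions sorted by FACS into six bins by GFP to DsRed ratio, PSI derived from sequencing read proportions per bin multiplied by bin number.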

Protein stability index, by site and new letter:
L10: G 2.73 | T 2.87 | Y 2.03 | N 2.48 | H 2.46 | P 1.95 | W 2.78
A7: E 1.62 | N 2.02 | C 3.29 | Y 2.94 | I 3.42
V12: I 3.64 | L 3.23 | Y 2.47 | Q 2.54 | D 1.65 | M 3.03 | A 3.62
A6: D 2.8 | T 3.43 | C 3.2 | M 3.34 | P 2.54 | G 3.2 | H 2.06 | Y 2.06 | L 3.39
I17: H 1.85 | K 2.9 | A 3.54 | C 3.11 | D 1.74 | P 2.77 | W 2.44 | R 2.33 | V 3.11 | Y 2.21 | F 2.58
L4: N 1.79 | R 3.42 | G 3.32 | F 3.69 | M 3.29 | S 3.29
T23: N 3.18 | E 2.74 | S 3.11 | W 3.69
L9: N 2.4 | G 3.48 | K 2.5 | I 3.36 | E 1.96 | D 2.68 | Y 2.12 | H 2.52
I14: M 3.09 | Y 3.26 | V 3.25 | L 3.19 | F 3.48 | T 3.25 | S 3.02 | P 3.1
Y21: H 2.58 | A 3.11 | C 3.21 | T 3.13 | G 3.22 | M 3.42 | V 2.96
V18: C 2.93 | G 2.66 | F 3.09 | L 3.26 | E 2.91
V5: G 3.37 | S 2.96 | C 3.37 | W 3.4 | P 2.36 | N 1.84
I13: D 1.4 | W 3.63 | C 3.25 | Q 2.86 | F 3.46 | V 2.8 | L 3.81 | G 3.21 | M 3.97
L16: E 3.2 | T 3.47 | F 3.6 | K 2.73 | V 3.35 | S 3.5
I15: K 2.04 | H 1.69 | E 2.43 | A 3.05 | M 2.88 | D 2 | F 2.79
A3: D 1.33 | R 3.58 | F 3.55 | S 2.86 | G 3.17 | Q 3.28 | T 3.17
R22: T 3.93 | G 3.6 | Q 3.39 | A 3.96 | I 3.65 | H 3.86 | M 4.08 | L 3.4 | W 4.25 | D 4.01
I8: C 3.01 | K 2.72 | N 2.48 | R 2.72 | E 2.68 | S 3.25 | H 2.14 | P 2.85 | A 3.34 | T 3.25 | F 3.4
M19: W 3.11 | E 3.07 | V 3.41 | I 3.64 | N 3.33 | Y 3.09 | T 2.72 | A 2.88 | R 2.91
M2: A 2.73 | R 3.53 | N 1.93 | K 2.98 | W 3.66
L11: H 2.71 | E 2.27 | F 3.58 | V 3.46 | S 3.39 | I 3.33 | C 3.27
K20: A 3.68 | L 2.93 | H 3.54 | S 4.02 | G 3.37 | I 3.75 | Y 3.38 | E 3.49
I1: G 3.11 | Y 3.52 | D 2.5 | P 3.56 | N 2.69
